B1: AB6-17 (antibody, V domains shown)
VH: QLQLQESGPGLVESSETLSLTCTVSSGSISRSTYYWGWIRQPPGKGMEWIGSISSGGSTYYNPSLNSRVTISIDTSKNQFSLKLRSVTAADTAVYYCARALQWPSPRIDYWAQGTLVTVSS
VL: DIQMTQSPSSLSASVGDRVTITCRASQSISSYLNWYQHKPGKAPKLLIYAASSLESGVPSRFTGSGSGTDFTLTIDSLQPEDFATYYCQQSYSTPLFTFGPGTTVDIK
B2: AB5-20 (antibody, V domains shown)
VH: QVQLVESGGGVVQPGRSLRLSCTASGFTFRHYGLHWVRQAPGKGLEWVAVILYDGSDEDYRDSVKGRFTISRDNSKNTLYLQMNSLRPEDTAVYYCAKQSGPYCSGGNCYSGHFDYWGQGTPVSVSS
VL: DIQMTQSPSSLSASVGDRVTITCQASQDISKSLSWYEQKPGKAPRLLIFEASNLETGVPSRFSGSGSGTSFSFTISSLQPEDFATYYCQQYDNVPLTFGGGTKVERK
B3: AB5-16 (antibody, V domains shown)
VH: QALMVQSEAAVKKPGASVKVSCKATGDAFSNHYLHWLRQAPGQGLEWLGIINPGAGSTTYAQKFQGRLTVTTDTSTNTVYMELSSLRSDDTAVYYCARDGAFIPSSYYYGMDVWGQGTTVTVSS
VL: EIVLTQSPGTLALSPGERATLSCRASQSVSSSYLAWYQQKPGQAPRLLIYGASSRATGVPDRFSGSGSGTDFTLTVSSLEPEDFAVYYCQQREAFGQGTKVEVK
B4: AB5-5 (antibody, V domains shown)
VH: QISLKESGPTLVQPTQTLTLTCTFSGFSLSSSGVGVGWIRQPPGKALEWLALLYWNDDKRYSPSLRTRLTITKDSSKNQVVLTMTNMDPMDTATYYCAHPRQTTVTTVFGLYPRPAAFDVWGPGTMVTVSS
VL: QSFLTQPPSVSGAPGQRVTISCTGSSSNIGAGYGVDWYQQLPGTAPKLLIYDNNNRPSGVPDRFSGSTSGTSASLAITGLHAEDEADYYCQSYDRSLSGSVVFGGGTKLTVL
B5: AB5-12 (antibody, V domains shown)
VH: QVQLQESGPGLVRPSQALSLTCTVSGGSISSEGYYWGWIRQHPGKGLEWIGYIYYTGNAYYNPSLQSRIDISVDTSANQFSLRLNSVTAADTAVYYCASDSFKGGFDSWGQGALVTVSS
VL: EIVLTQSPTTLSLSPGERATLSCRASQTVSGSVAWYQQKPGQAPRLVIYDVSYRATGIPARFSGSGSGTDFTLTISSLEPEDFAVYYCQERRKAFGQGTTVEIK

Each binder was assayed against T1, angiotensin-converting enzyme-2 (ACE2), biotinylated (Homo sapiens, assumed, UniProt Q9BYF1, biotin) (assay: ELISA). Conditions: both partners purified.
T1 construct: also called host protein
T1 sequence (Q9BYF1 18-805): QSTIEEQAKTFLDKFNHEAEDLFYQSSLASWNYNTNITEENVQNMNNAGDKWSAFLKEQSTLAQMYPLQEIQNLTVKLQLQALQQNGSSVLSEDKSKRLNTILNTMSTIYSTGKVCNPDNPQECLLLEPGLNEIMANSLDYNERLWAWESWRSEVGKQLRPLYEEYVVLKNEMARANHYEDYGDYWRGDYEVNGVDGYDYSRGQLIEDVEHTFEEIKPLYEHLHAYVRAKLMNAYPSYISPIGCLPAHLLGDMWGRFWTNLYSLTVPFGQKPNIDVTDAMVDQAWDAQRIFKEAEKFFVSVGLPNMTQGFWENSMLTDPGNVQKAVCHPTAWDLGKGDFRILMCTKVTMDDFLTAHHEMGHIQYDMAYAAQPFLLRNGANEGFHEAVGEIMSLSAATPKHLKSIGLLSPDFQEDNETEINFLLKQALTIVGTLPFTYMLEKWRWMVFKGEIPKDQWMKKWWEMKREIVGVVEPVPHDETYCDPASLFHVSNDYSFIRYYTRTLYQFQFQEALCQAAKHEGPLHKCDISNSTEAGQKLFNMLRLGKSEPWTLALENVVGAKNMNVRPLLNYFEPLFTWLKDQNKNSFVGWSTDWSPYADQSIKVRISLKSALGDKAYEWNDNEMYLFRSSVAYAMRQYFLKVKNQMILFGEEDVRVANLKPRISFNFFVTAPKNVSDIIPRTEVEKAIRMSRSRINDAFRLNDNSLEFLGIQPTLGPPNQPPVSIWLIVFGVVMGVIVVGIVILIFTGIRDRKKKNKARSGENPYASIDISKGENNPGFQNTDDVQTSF

**Q.** Does B1 bind?
**A.** Result: no binding

**Q.** Does B2 bind?
**A.** Result: no binding

**Q.** Does B3 bind?
**A.** Result: no binding

What follows are binders tested against SARS-CoV-2 wild-type (WT) receptor-binding domain (RBD) (SARS-CoV-2, wild type (Wuhan-Hu-1 …, UniProt P0DTC2)) (assay: ELISA). Conditions: both partners purified.

**Q.** Does B1 bind?
**A.** Result: binds

**Q.** Does B2 bind?
**A.** Result: binds

**Q.** Does B4 bind?
**A.** Result: no binding

**Q.** Does B3 bind?
**A.** Result: binds

**Q.** Does B5 bind?
**A.** Result: no binding

These binders were tested against SARS-CoV-2 wild-type (WT) N-terminal domain (NTD) of the spike protein (SARS-CoV-2, wild type (Wuhan-Hu-1 …, UniProt P0DTC2)) (assay: ELISA). Conditions: both partners purified.

**Q.** Does B4 bind?
**A.** Result: no binding

**Q.** Does B5 bind?
**A.** Result: no binding
